What follows are sequences tested on Escherichia coli TOP10 (assay: shrunken log2 fold change of peptide-encoding DNA abundance (4.5 h post-induction vs induction); higher = less antimicrobial activity (less host growth inhibition)). Conditions: time post-induction: 4.5 h; library: site-saturation at positions 5, 18, 19, 20.
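Also: peptides expressed intracellularly from a pBAD plasmid library in pooled LB shake-flask culture, induced with 0.3% L-arabinose, DNA abundance read by NGS, three biological replicates, DESeq2 with apeglm shrinkage.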

Sequence | shrunken log2 fold change
RRIRSRPPRLPRPRPRPNYWPRP | -0.143
RRIRVRPPRLPRPRPRPHEMPRP | -0.058
RRIRVRPPRLPRPRPRPKHIPRP | -0.47
RRIRSRPPRLPRPRPRPPAYPRP | -0.0776
RRIRSRPPRLPRPRPRPMCNPRP | -0.287
RRIRKRPPRLPRPRPRPSENPRP | 0.101
RRIRTRPPRLPRPRPRPTRVPRP | 0.214
RRIRRRPPRLPRPRPRPIPDPRP | 0.277
RRIRYRPPRLPRPRPRPFAAPRP | -0.508
RRIRSRPPRLPRPRPRPACQPRP | 0.0147
RRIRYRPPRLPRPRPRPPWEPRP | -0.381
RRIRPRPPRLPRPRPRPCNEPRP | -0.16
RRIRSRPPRLPRPRPRPKRHPRP | 0.169
RRIRYRPPRLPRPRPRPERAPRP | 0.173
RRIRWRPPRLPRPRPRPPIDPRP | 0.1
RRIRCRPPRLPRPRPRPCFIPRP | -0.488
RRIRCRPPRLPRPRPRPIAVPRP | -0.0152
RRIRERPPRLPRPRPRPRRRPRP | 0.261
RRIRERPPRLPRPRPRPTHHPRP | -0.0607
RRIRQRPPRLPRPRPRPLIKPRP | -0.249
RRIRYRPPRLPRPRPRPRPDPRP | -0.0672
RRIRIRPPRLPRPRPRPMMNPRP | -0.442
RRIRLRPPRLPRPRPRPAHKPRP | 0.384
RRIRPRPPRLPRPRPRPEFDPRP | 0.33
RRIRKRPPRLPRPRPRPFEAPRP | 2.17

Sequence | shrunken log2 fold change
RRIRCRPPRLPRPRPRPQCNPRP | -0.5
RRIRLRPPRLPRPRPRPKSMPRP | -0.0449
RRIRGRPPRLPRPRPRPCQGPRP | 0.242
RRIRWRPPRLPRPRPRPVQVPRP | 0.0298
RRIRFRPPRLPRPRPRPTTHPRP | -0.0585
RRIRERPPRLPRPRPRPKTEPRP | -0.0578
RRIRHRPPRLPRPRPRPEKQPRP | -0.0365
RRIRQRPPRLPRPRPRPSGDPRP | -0.00374
RRIRHRPPRLPRPRPRPQVMPRP | -0.0437
RRIRKRPPRLPRPRPRPNFMPRP | -0.117
RRIRPRPPRLPRPRPRPYCLPRP | -0.115
RRIRFRPPRLPRPRPRPTGPPRP | 0.445
RRIRIRPPRLPRPRPRPEGWPRP | 0.497
RRIRMRPPRLPRPRPRPAEGPRP | 0.265
RRIRQRPPRLPRPRPRPGWAPRP | 0.113
RRIRTRPPRLPRPRPRPWNYPRP | -0.567
RRIRHRPPRLPRPRPRPLWWPRP | 0.237
RRIRFRPPRLPRPRPRPDCQPRP | 0.0422
RRIRLRPPRLPRPRPRPDQFPRP | 0.0392
RRIRRRPPRLPRPRPRPQMKPRP | -0.0643
RRIRRRPPRLPRPRPRPHKPPRP | -0.176
RRIRSRPPRLPRPRPRPRYTPRP | -0.145
RRIRVRPPRLPRPRPRPLYVPRP | -0.705
RRIRRRPPRLPRPRPRPFRYPRP | 0.292
RRIRTRPPRLPRPRPRPWDTPRP | -0.15

Sequence | shrunken log2 fold change
RRIRVRPPRLPRPRPRPNPMPRP | 0.0227
RRIRMRPPRLPRPRPRPLSVPRP | 0.401
RRIRFRPPRLPRPRPRPYYHPRP | -0.146
RRIRDRPPRLPRPRPRPYAPPRP | -0.477
RRIRKRPPRLPRPRPRPGYDPRP | -0.0159
RRIRMRPPRLPRPRPRPIFTPRP | -0.0423
RRIRLRPPRLPRPRPRPSQWPRP | 0.0987
RRIRDRPPRLPRPRPRPAYRPRP | -0.0687
RRIRCRPPRLPRPRPRPYEWPRP | -0.0207
RRIRNRPPRLPRPRPRPDQHPRP | -0.34
RRIRTRPPRLPRPRPRPDYHPRP | -0.699
RRIRARPPRLPRPRPRPRCFPRP | 0.222
RRIRIRPPRLPRPRPRPNQNPRP | -0.391
RRIRGRPPRLPRPRPRPEWKPRP | 1.3
RRIRNRPPRLPRPRPRPFEEPRP | 0.0129
RRIRRRPPRLPRPRPRPGTGPRP | 0.21
RRIRYRPPRLPRPRPRPSACPRP | -0.301
RRIRHRPPRLPRPRPRPCMGPRP | -0.194
RRIRYRPPRLPRPRPRPVDPPRP | -0.0356
RRIRQRPPRLPRPRPRPSCYPRP | -0.396
RRIRQRPPRLPRPRPRPWMDPRP | -0.118
RRIRLRPPRLPRPRPRPYCYPRP | -0.238
RRIRPRPPRLPRPRPRPRPDPRP | 0.45
RRIRFRPPRLPRPRPRPVCFPRP | -0.151
RRIRRRPPRLPRPRPRPKMTPRP | 0.24

Sequence | shrunken log2 fold change
RRIRIRPPRLPRPRPRPLRGPRP | 0.694
RRIRSRPPRLPRPRPRPRMTPRP | 0.251
RRIRSRPPRLPRPRPRPEWTPRP | 0.329
RRIRSRPPRLPRPRPRPYPAPRP | -0.559
RRIRMRPPRLPRPRPRPDHTPRP | 0.329
RRIRDRPPRLPRPRPRPITMPRP | 0.111
RRIRHRPPRLPRPRPRPPYDPRP | -0.0114
RRIRLRPPRLPRPRPRPVWCPRP | 0.0297
RRIRGRPPRLPRPRPRPPQCPRP | 0.713
RRIRTRPPRLPRPRPRPQSNPRP | -0.581
RRIRTRPPRLPRPRPRPCRSPRP | -0.0198
RRIRIRPPRLPRPRPRPCTMPRP | -0.0242
RRIRFRPPRLPRPRPRPWVIPRP | -0.412
RRIRHRPPRLPRPRPRPTPDPRP | 0.134
RRIRNRPPRLPRPRPRPIKIPRP | -0.357
RRIRVRPPRLPRPRPRPKDTPRP | -0.038
RRIRERPPRLPRPRPRPDVGPRP | -0.59
RRIRCRPPRLPRPRPRPKRIPRP | -0.143
RRIRGRPPRLPRPRPRPKSFPRP | 0.0944
RRIRARPPRLPRPRPRPFKYPRP | -0.0956
RRIRMRPPRLPRPRPRPCIWPRP | 0.0563
RRIRMRPPRLPRPRPRPFKIPRP | -0.0716
RRIRWRPPRLPRPRPRPQCCPRP | -0.0128
RRIRYRPPRLPRPRPRPYFRPRP | -0.836
RRIRDRPPRLPRPRPRPREYPRP | 0.306

Sequence | shrunken log2 fold change
RRIRYRPPRLPRPRPRPEGRPRP | 0.172
RRIRLRPPRLPRPRPRPNQIPRP | -0.253
RRIRVRPPRLPRPRPRPHMTPRP | -0.277
RRIRKRPPRLPRPRPRPDCMPRP | -0.0185
RRIRIRPPRLPRPRPRPLKFPRP | -0.373
RRIRARPPRLPRPRPRPQNWPRP | 0.315
RRIRDRPPRLPRPRPRPTMSPRP | 0.0526
RRIRYRPPRLPRPRPRPEWVPRP | -0.0265
RRIRMRPPRLPRPRPRPCTMPRP | -0.218
RRIRSRPPRLPRPRPRPDSYPRP | -0.221
RRIRLRPPRLPRPRPRPRQCPRP | 0.283
RRIRGRPPRLPRPRPRPLISPRP | 0.364
RRIRARPPRLPRPRPRPMYAPRP | 0.207
RRIRMRPPRLPRPRPRPPMHPRP | 0.704
RRIRDRPPRLPRPRPRPGSEPRP | 0.0708
RRIRARPPRLPRPRPRPTAVPRP | 0.873
RRIRERPPRLPRPRPRPKWHPRP | -0.136
RRIRQRPPRLPRPRPRPCHKPRP | 0.0524
RRIRIRPPRLPRPRPRPHFGPRP | -0.00693
RRIRVRPPRLPRPRPRPGSAPRP | 0.179
RRIRNRPPRLPRPRPRPPFQPRP | 0.0529
RRIRMRPPRLPRPRPRPYVVPRP | 0.00957
RRIRHRPPRLPRPRPRPQQIPRP | -0.0193
RRIRYRPPRLPRPRPRPIHSPRP | -0.0447
RRIRTRPPRLPRPRPRPQQAPRP | -0.0444

Sequence | shrunken log2 fold change
RRIRSRPPRLPRPRPRPPMPPRP | 0.486
RRIRDRPPRLPRPRPRPRTLPRP | 0.14
RRIRKRPPRLPRPRPRPVPLPRP | 0.185
RRIRSRPPRLPRPRPRPFFVPRP | -0.184
RRIRTRPPRLPRPRPRPQSYPRP | -0.0281
RRIRQRPPRLPRPRPRPVDHPRP | -0.335
RRIRHRPPRLPRPRPRPYNIPRP | -0.244
RRIRGRPPRLPRPRPRPQSAPRP | 0.629
RRIRTRPPRLPRPRPRPRGHPRP | 0.182
RRIRRRPPRLPRPRPRPPHIPRP | 0.655
RRIRKRPPRLPRPRPRPTNNPRP | -0.2
RRIRFRPPRLPRPRPRPRIPPRP | -0.0955
RRIRDRPPRLPRPRPRPGDRPRP | -0.00192
RRIRTRPPRLPRPRPRPNDDPRP | -0.519
RRIRKRPPRLPRPRPRPHLYPRP | 0.0535
RRIRMRPPRLPRPRPRPSLDPRP | 0.663
RRIRVRPPRLPRPRPRPPETPRP | -0.0362
RRIRARPPRLPRPRPRPFKHPRP | -0.27
RRIRTRPPRLPRPRPRPKQIPRP | 0.0644
RRIRIRPPRLPRPRPRPWMNPRP | -0.238
RRIRHRPPRLPRPRPRPDVWPRP | 0.15
RRIRNRPPRLPRPRPRPTENPRP | 0.0685
RRIRCRPPRLPRPRPRPWYLPRP | -0.0282
RRIRSRPPRLPRPRPRPVPSPRP | 0.391
RRIRWRPPRLPRPRPRPTATPRP | 0.528

From the supplement of paper PMC9112550, “Optimization of the antimicrobial peptide Bac7 by deep mutational scanning” (BMC Biology, 2022)
